Measurements: patent US20260356924 (published 2026)
Substitutions are numbered along the chain they refer to.

T1: Tau409-426 pS422 peptide (human)
T1 chain: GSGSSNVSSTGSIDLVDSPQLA

B1: Ab11 (antibody, V domains shown)
VH: QVQLVQSGAEVKKPGASVKVSCKASGFTFTRYWMHWVKERPGQGLEWMGNINPNNGGTDFNEKFKNRVTMTVHKSTSTVFIQLSSLRSEDTAVYYCARGTGTGAMDYWGQGTSVTVSS
VL: DVVMTQSPLSLPVTLGQPASISCRSSQSLVHNNGITYLYWYQQRPGQSPRLLIYRVSNRFSGVPDRFSGSGSGTDFTLKISRVEAEDVGVYYCFQGTHVPRTFGQGTKLEIK
B2: Ab3 (antibody, V domains shown)
VH: EVQLVQSGAEVKKPGSSVKVSCKASGFTFTRYWMHWVKERPGHGLEWIGNINPNNGGTDFNEKFKNRVTMTVHKSITTAYMELSRLTSDDSAVYYCARGTGTGAMDYWGQGTLVSVSS
VL: B1 VL
B3: Ab6 (antibody, V domains shown)
VH: B1 VH with Q6E, Q43H, M70I, T76A, V79A, F80Y, I81M, Q82E, S113T
VL: B1 VL with V2I, P12S, L15P, Q42L, R44K, R50Q, L109V
B4: Ab8 (antibody, V domains shown)
VH: QVQLVQSGAEVKKSGASVKVSCKASGFTFTRYWMHWVRQAPGQGLEWIGNINPNNGGTDFNEKFKNRVTLIRDTSTTTVFIQLTSLTSEDSAVYYCARGTGTGAMDYWGQGTLVTVSS
VL: B1 VL
B5: Ab2 (antibody, V domains shown)
VH: B1 VH with Q6E, Q43H, M70I, T76A, V79A, F80Y, I81M, Q82E, S113T
VL: B1 VL
B6: Ab5 (antibody, V domains shown)
VH: B1 VH
VL: B1 VL with V2I, S7T, L11S, S48P, S72A, S81N, Y92F
B7: Ab7 (antibody, V domains shown)
VH: B2 VH with E1Q, S16A, K38R, T77S, R85S, T87R, S115T
VL: B1 VL
B8: Ab1 (antibody, V domains shown)
VH: B4 VH
VL: B1 VL with V2I, P12S, L15P, Q42L, R44K, R50Q, L109V
B9: Ab10 (antibody, V domains shown)
VH: B2 VH
VL: B1 VL with V2I, S7T, L11S, S48P, S72A, S81N, Y92F
B10: Ab9 (antibody, V domains shown)
VH: B2 VH
VL: B1 VL with V2I, P12S, L15P, Q42L, R44K, R50Q, L109V
B11: Ab4 (antibody, V domains shown)
VH: B1 VH
VL: B1 VL with V2I, P12S, L15P, Q42L, R44K, R50Q, L109V
B12: V0004 (antibody, V domains shown)
VH: QVQLQQPGAELVKPGASVKLSCKASDYTFTNYWMHWVKQRPGRGLEWIGRIDPNSGGTRYNEKFKNKATLTVDKPSSTAYMHLSSLTSEDSAVYYCAGDFDVWGTGTTVTVSS
VL: DIQMTQSPASLSASVGETVTITCRASGNIHNYLAWYQQRQGKSPQLLVYNAKTLPDGVPSRFSGSGSGTQYSLKINSLQPEDFGSYCCQHFWSTPLTFGAGTKLELK
modifications: immunopurified paired helical filament tau, hyperphosphorylated
B13: Ab3 (antibody, V domains shown)
VH: B2 VH
VL: B1 VL
modifications: non-phosphorylated recombinant tau
B14: Ab9 (antibody, V domains shown)
VH: B2 VH
VL: B1 VL with V2I, P12S, L15P, Q42L, R44K, R50Q, L109V
modifications: non-phosphorylated recombinant tau
B15: Ab5 (antibody, V domains shown)
VH: B1 VH
VL: B1 VL with V2I, S7T, L11S, S48P, S72A, S81N, Y92F
modifications: non-phosphorylated recombinant tau
B16: Ab8 (antibody, V domains shown)
VH: B4 VH
VL: B1 VL
modifications: non-phosphorylated recombinant tau
B17: Ab6 (antibody, V domains shown)
VH: B1 VH with Q6E, Q43H, M70I, T76A, V79A, F80Y, I81M, Q82E, S113T
VL: B1 VL with V2I, P12S, L15P, Q42L, R44K, R50Q, L109V
modifications: non-phosphorylated recombinant tau
B18: Ab10 (antibody, V domains shown)
VH: B2 VH
VL: B1 VL with V2I, S7T, L11S, S48P, S72A, S81N, Y92F
modifications: non-phosphorylated recombinant tau
B19: Ab4 (antibody, V domains shown)
VH: B1 VH
VL: B1 VL with V2I, P12S, L15P, Q42L, R44K, R50Q, L109V
modifications: non-phosphorylated recombinant tau
B20: Ab2 (antibody, V domains shown)
VH: B1 VH with Q6E, Q43H, M70I, T76A, V79A, F80Y, I81M, Q82E, S113T
VL: B1 VL
modifications: non-phosphorylated recombinant tau
B21: Ab1 (antibody, V domains shown)
VH: B4 VH
VL: B1 VL with V2I, P12S, L15P, Q42L, R44K, R50Q, L109V
modifications: non-phosphorylated recombinant tau
B22: Ab7 (antibody, V domains shown)
VH: B2 VH with E1Q, S16A, K38R, T77S, R85S, T87R, S115T
VL: B1 VL
modifications: non-phosphorylated recombinant tau
B23: Ab11 (antibody, V domains shown)
VH: B1 VH
VL: B1 VL
modifications: non-phosphorylated recombinant tau
B24: Ab4 (antibody, V domains shown)
VH: B1 VH
VL: B1 VL with V2I, P12S, L15P, Q42L, R44K, R50Q, L109V
modifications: enriched paired helical filament tau, hyperphosphorylated
B25: Ab5 (antibody, V domains shown)
VH: B1 VH
VL: B1 VL with V2I, S7T, L11S, S48P, S72A, S81N, Y92F
modifications: enriched paired helical filament tau, hyperphosphorylated
B26: hV0022 control (antibody, V domains shown)
VH: QVQLQQPGTELVKPGSSVNLSCKASGFTFTRYWMHWVKERPGHGLEWIGNINPNNGGTDFNEKFKNKATLTVHKSSTTVFIQLSSLTSEDSAVYYCARGTGTGAMDYWGQGTSVTVSS
VL: DVVMTQTPLSLPVSLGDQASISCRSSQSLVHNNGITYLYWYLQKPGQSPKLLIYRVSNRFSGVPDRFGGSGSGTDFTLKISRVEAEDLGVYFCFQGTHVPRTFGGGTKLEIK
modifications: enriched paired helical filament tau, hyperphosphorylated
B27: V0009 (antibody, V domains shown)
VH: EVQLVESGGALVQPGGSLSLSCAASGFTFTDYYMSWVRQPPGKALEWLALIRNKAKGFTTEYSASVKGRFTISRDNSQSILLFQMNDLRADDSATYYCVRDINYWGQGTTLTVSS
VL: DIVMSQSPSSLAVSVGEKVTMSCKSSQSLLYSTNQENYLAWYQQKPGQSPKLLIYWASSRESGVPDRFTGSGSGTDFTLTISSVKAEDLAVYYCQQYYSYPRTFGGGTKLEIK
modifications: enriched paired helical filament tau, hyperphosphorylated
B28: V0004 (antibody, V domains shown)
VH: B12 VH
VL: B12 VL
modifications: enriched paired helical filament tau, hyperphosphorylated
B29: V0023 (antibody, V domains shown)
VH: QVQLQQPGTELVKPGASVKLSCKASGYTFTIFWMHWVKQRPGHGLEWIGKINPNNGGGDYNEKFKSKATLTVDKSSTTAYLQLSSLTSEDSAVYYCARGTGTGAMDYWGQGTSVTVSS
VL: B26 VL with Q18H, N32S, Y37H, K44R, S48T, G68S, R82S, K112E
modifications: enriched paired helical filament tau, hyperphosphorylated

Molecular target: T1, Tau409-426 pS422 peptide
Test: SPR

| Kd | Binder |
| --- | --- |
| 40.3 pM | B1 |
| 45.7 pM | B2 |
| 39.8 pM | B3 |
| 53.3 pM | B4 |
| 38.6 pM | B5 |
| 29.4 pM | B6 |
| 39.8 pM | B7 |
| 40.8 pM | B8 |
| 43.6 pM | B9 |
| 76.3 pM | B10 |
| 36.1 pM | B11 |

molecular target: iPHF (human, UniProt P10636); test: BLI
Sequence (P10636 2-758): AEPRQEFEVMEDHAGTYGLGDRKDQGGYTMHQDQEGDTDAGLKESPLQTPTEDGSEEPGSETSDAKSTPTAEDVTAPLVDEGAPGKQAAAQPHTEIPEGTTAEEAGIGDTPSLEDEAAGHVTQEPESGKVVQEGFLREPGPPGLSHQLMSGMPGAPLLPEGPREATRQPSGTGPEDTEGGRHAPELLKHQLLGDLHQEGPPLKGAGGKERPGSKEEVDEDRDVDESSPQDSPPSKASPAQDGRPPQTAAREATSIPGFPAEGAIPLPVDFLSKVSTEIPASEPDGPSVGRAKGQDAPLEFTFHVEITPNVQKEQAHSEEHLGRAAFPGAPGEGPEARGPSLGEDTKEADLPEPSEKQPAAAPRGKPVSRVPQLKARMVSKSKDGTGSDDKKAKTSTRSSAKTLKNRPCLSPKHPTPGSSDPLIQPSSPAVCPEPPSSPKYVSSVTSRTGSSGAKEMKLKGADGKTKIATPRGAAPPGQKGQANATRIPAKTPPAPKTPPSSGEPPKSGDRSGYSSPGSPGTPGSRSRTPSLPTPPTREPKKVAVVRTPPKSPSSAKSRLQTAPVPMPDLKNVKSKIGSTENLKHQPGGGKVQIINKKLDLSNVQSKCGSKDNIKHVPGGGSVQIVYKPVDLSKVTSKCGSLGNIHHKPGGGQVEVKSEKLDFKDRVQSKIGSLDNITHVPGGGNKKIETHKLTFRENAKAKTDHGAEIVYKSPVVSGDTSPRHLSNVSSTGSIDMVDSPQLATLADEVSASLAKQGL

| Kd | Binder |
| --- | --- |
| 20000 pM | B12 |

molecular target: wild type tau (human); test: ELISA
Sequence (P10636 other isoform, or with tags, fused parts or gaps): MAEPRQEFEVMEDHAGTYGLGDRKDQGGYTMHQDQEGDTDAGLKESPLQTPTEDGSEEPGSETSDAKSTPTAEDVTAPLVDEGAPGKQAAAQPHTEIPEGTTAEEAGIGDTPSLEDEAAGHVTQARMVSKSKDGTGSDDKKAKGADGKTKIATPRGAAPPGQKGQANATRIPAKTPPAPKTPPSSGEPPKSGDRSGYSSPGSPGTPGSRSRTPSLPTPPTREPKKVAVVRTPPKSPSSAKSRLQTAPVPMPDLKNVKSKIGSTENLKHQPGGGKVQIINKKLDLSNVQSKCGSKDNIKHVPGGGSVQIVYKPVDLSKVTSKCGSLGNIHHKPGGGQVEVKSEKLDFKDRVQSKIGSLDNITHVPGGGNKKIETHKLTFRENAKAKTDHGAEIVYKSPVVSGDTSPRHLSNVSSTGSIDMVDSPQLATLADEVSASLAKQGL

| binding result | Binder |
| --- | --- |
| no binding | B13 |
| no binding | B14 |
| no binding | B15 |
| no binding | B16 |
| no binding | B17 |
| no binding | B18 |
| no binding | B19 |
| no binding | B20 |
| no binding | B21 |
| no binding | B22 |
| no binding | B23 |

molecular target: T2, ePHF (human, UniProt P10636); test: ELISA
T2 sequence (P10636 2-758): as the sequence (P10636 2-758) above

| EC50 | Binder |
| --- | --- |
| 180 pM | B24 |
| 190 pM | B25 |
| 80 pM | B26 |

molecular target: T2, ePHF; test: ELISA; remark: another data set of the same source

| EC50 | Binder |
| --- | --- |
| 38 pM | B27 |
| 83 pM | B28 |
| 110 pM | B29 |
